Results taken from patent US20240317859A1 (FOUNDATION FOR BIOMEDICAL RESEARCH AND INNOVATION AT KOBE, published 2024).
Residue numbers refer to the chain shown, from its start. Names may count otherwise. Where two headings read alike, the source gives them in different places.

B1: chimeric HM242-IgG1-K322A (antibody)
heavy: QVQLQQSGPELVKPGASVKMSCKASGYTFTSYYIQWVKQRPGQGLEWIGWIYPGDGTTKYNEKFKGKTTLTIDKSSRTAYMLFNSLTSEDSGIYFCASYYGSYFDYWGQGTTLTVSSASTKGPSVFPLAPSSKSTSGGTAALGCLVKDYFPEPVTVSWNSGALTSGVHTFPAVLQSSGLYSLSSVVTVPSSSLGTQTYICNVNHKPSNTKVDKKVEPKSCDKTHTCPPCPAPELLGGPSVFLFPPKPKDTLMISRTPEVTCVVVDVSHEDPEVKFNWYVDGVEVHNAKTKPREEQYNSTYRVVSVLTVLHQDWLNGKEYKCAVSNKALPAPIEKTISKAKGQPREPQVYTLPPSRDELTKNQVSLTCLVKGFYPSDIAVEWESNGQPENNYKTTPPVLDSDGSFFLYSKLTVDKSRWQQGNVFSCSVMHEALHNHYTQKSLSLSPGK
light: DIQMTQTTSSLSASLGDRVTISCRASQDISNYLNWYQQKPDGTVTLLIYYTSKLHSGVPSRFSGSGSGTDYSLTITNLEQKDFATYFCQQSSTLPFTFGGGTKLEIKRTVAAPSVFIFPPSDEQLKSGTASVVCLLNNFYPREAKVQWKVDNALQSGNSQESVTEQDSKDSTYSLSSTLTLSKADYEKHKVYACEVTHQGLSSPVTKSFNRGEC
notes: Mouse Fab region with the Fc region of human IgG1-K322A
B2: HM268-M8 (antibody, human IgG1, V domains shown)
VH: QVQLVQSGPEVKKPGASVKVVCKASGYTFTSYYIQWVRQVPGQGLEWMGWIYFGDASTKYNEKFKGRVTMTADTSTSTAYMELRSLRSDDTAVYYCASYYGSYFDYWGQGTTVTVSS
VL: DIQMTQSPSSLSASVGDRVTITCRASQDISNYLNWYQQKPDGTVKLLIYSTSRLHSGVPSRFSGSGSGTDYTLTISSLQPEDFATYYCQQGSTLPFTFGQGTKLEIK
notes: also called humanized HM268, VH ver.M / VL ver.8
B3: HM242-B3 (antibody, human IgG1, V domains shown)
VH: B2 VH with F53P, A56G, S57T, R67K, V68T, M70L, A72I, T74K, S77R, T112L
VL: B2 VL with D41G, G42K, T43A, V44P, S50Y, R53K, G91S
notes: also called humanized HM242, VH ver.B / VL ver.3
B4: HM242-A3 (antibody, human IgG1, V domains shown)
VH: QVQLVQSGPELVKPGASVKVVCKASGYTFTSYYIQWVKQRPGQGLEWIGWIYPGDGTTKYNEKFKGKTTLTIDKSTRTAYMELRSLRSDDTAVYYCASYYGSYFDYWGQGTLVTVSS
VL: B2 VL with D41G, G42K, T43A, V44P, S50Y, R53K, G91S
notes: also called humanized HM242, VH ver.A / VL ver.3
B5: HM242-A1 (antibody, human IgG1, V domains shown)
VH: B4 VH
VL: B2 VL with S7T, P8T, K45T, S50Y, R53K, Q79E, P80Q, E81K, G91S
notes: also called humanized HM242, VH ver.A / VL ver.1
B6: HM242-A2 (antibody, human IgG1, V domains shown)
VH: B4 VH
VL: B2 VL with K45T, S50Y, R53K, G91S
notes: also called humanized HM242, VH ver.A / VL ver.2
B7: HM242-B1 (antibody, human IgG1, V domains shown)
VH: B4 VH with L11V, V12K, K38R, R40V, I48M
VL: B2 VL with S7T, P8T, K45T, S50Y, R53K, Q79E, P80Q, E81K, G91S
notes: also called humanized HM242, VH ver.B / VL ver.1
B8: humanized HM268-K8-IgG1-K322A (antibody, V domains shown)
VH: B2 VH with A24T, V37L, R38K, V40R, M48I, T74K
VL: DIQMTQSPSSLSASVGDRVTITCRASQDISNYLNWYQQKPDGTVKLLIYSTSRLHSGVPSRFSGSGSGTDYTLTISSLQPEDFATYYCQQGSTLPFTFGQGTKLEIKR
B9: HM242-B2 (antibody, human IgG1, V domains shown)
VH: B4 VH with L11V, V12K, K38R, R40V, I48M
VL: B2 VL with K45T, S50Y, R53K, G91S
notes: also called humanized HM242, VH ver.B / VL ver.2
B10: HM268-L9 (antibody, human IgG1, V domains shown)
VH: B2 VH with A24T
VL: B2 VL with D41G, G42K, T43A, V44P
notes: also called humanized HM268, VH ver.L / VL ver.9
B11: HM268-M7 (antibody, human IgG1, V domains shown)
VH: B2 VH
VL: B2 VL with S7N, P8T, Q79E, P80Q
notes: also called humanized HM268, VH ver.M / VL ver.7
B12: HM268-J7 (antibody, human IgG1, V domains shown)
VH: B2 VH with A24T, R67K, V68T, M70L, T74K
VL: B2 VL with S7N, P8T, Q79E, P80Q
notes: also called humanized HM268, VH ver.J / VL ver.7
B13: HM268-M9 (antibody, human IgG1, V domains shown)
VH: B2 VH
VL: B2 VL with D41G, G42K, T43A, V44P
notes: also called humanized HM268, VH ver.M / VL ver.9
B14: HM268-L7 (antibody, human IgG1, V domains shown)
VH: B2 VH with A24T
VL: B2 VL with S7N, P8T, Q79E, P80Q
notes: also called humanized HM268, VH ver.L / VL ver.7
B15: HM268-K9 (antibody, human IgG1, V domains shown)
VH: B2 VH with A24T, V37L, R38K, V40R, M48I, T74K
VL: B2 VL with D41G, G42K, T43A, V44P
notes: also called humanized HM268, VH ver.K / VL ver.9
B16: HM268-J8 (antibody, human IgG1, V domains shown)
VH: B2 VH with A24T, R67K, V68T, M70L, T74K
VL: B2 VL
notes: also called humanized HM268, VH ver.J / VL ver.8
B17: HM268-K7 (antibody, human IgG1, V domains shown)
VH: B2 VH with A24T, V37L, R38K, V40R, M48I, T74K
VL: B2 VL with S7N, P8T, Q79E, P80Q
notes: also called humanized HM268, VH ver.K / VL ver.7
B18: HM268-J9 (antibody, human IgG1, V domains shown)
VH: B2 VH with A24T, R67K, V68T, M70L, T74K
VL: B2 VL with D41G, G42K, T43A, V44P
notes: also called humanized HM268, VH ver.J / VL ver.9
B19: HM268-L8 (antibody, human IgG1, V domains shown)
VH: B2 VH with A24T
VL: B2 VL
notes: also called humanized HM268, VH ver.L / VL ver.8
B20: chimeric HM268-IgG1-K322A (antibody)
heavy: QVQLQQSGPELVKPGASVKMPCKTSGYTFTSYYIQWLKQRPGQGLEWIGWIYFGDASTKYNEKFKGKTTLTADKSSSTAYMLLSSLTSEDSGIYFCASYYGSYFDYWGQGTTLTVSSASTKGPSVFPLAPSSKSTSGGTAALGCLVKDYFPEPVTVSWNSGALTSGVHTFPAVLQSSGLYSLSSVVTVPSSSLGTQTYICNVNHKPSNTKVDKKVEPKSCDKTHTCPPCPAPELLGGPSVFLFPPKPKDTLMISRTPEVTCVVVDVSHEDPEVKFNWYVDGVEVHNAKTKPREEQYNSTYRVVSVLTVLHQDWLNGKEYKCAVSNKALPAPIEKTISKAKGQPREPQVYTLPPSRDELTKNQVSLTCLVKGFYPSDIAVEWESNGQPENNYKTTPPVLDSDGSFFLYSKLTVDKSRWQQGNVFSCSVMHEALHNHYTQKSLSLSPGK
light: NIQMTQNTSSLSATLGVRVTISCRASQDISNYLNWYQQKPDGTVKLLIYSTSRLHSGIPSRFSGSGSGTDYSLTISNLEQEDIATYFCQQGSTLPFTFGGGTKLEIKRTVAAPSVFIFPPSDEQLKSGTASVVCLLNNFYPREAKVQWKVDNALQSGNSQESVTEQDSKDSTYSLSSTLTLSKADYEKHKVYACEVTHQGLSSPVTKSFNRGEC
notes: as for B1

Columns and labels:
[1] = target: T1, human PD-1 (wild-type), expressed on cells (human, UniProt Q15116 25-288); assay: cell-based or functional assay
Target sequence in this assay (Q15116 25-288 limits assumed): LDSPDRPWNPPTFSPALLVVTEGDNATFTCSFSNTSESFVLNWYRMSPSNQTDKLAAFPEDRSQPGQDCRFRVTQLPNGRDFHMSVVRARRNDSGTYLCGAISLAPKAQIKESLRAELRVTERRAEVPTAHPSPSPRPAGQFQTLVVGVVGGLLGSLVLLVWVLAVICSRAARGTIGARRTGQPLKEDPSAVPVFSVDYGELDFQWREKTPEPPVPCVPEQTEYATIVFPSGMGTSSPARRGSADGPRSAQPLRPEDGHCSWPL

[2] = target: Human PD-1/PDCD1 Protein (PD-1) (human, UniProt Q15116 25-167, limits assumed); assay: SPR, Biacore 8K; PD-1 captured by anti-His antibody, antibody in flow
Description: The binding affinity of each antibody to human PD-1 was measured with Biacore 8K (Cytiva). Briefly, anti-His Tag antibody was immobilized by amine coupling using Amine Coupling Kit and His Capture Kit, onto 8 channels of a sensor chip (provided with 16 flow cells; one channel consisting of two flow cells) which had carboxymethyl dextran immobilized on a gold film. The immobilization was performed by feeding an activation solution (NHS and EDC mixed in equal amounts) at a flow rate of 10 μl/min for 7 minutes, an immobilization solution at a flow rate of 5 μl/min for 7 minutes, and 1 M ethanolamine hydrochloride-NaOH (pH 8.5) at a flow rate of 10 μl/min for 7 minutes. The buffer used at the time of immobilization was 1×HBS-EP+ Buffer. After the immobilization and before applying a sample, Human PD-1/PDCD1 Protein (PD-1) adjusted to 1 μg/ml with 1×HBS-EP+ Buffer was fed to one of the two flow cells of each channel in an amount of 20 μl at a flow rate of 10 μl/min to thereby capture PD-1 on the sensor chip. As regards the other flow cell, 1×HBS-EP+ Buffer was fed in the same manner to prepare a control flow cell. Each antibody was adjusted to 16 nM with 1×HBS-EP+ Buffer, and then subjected to 2-fold 7-step serial dilution using 1×HBS-EP+ Buffer. The resultant sample solution (30 μl) was fed to each flow cell at a flow rate of 10 μl/min and the response was measured. After subtracting the response of control flow cell from the response of the flow cell which was allowed to capture the ligand, KD value was calculated by curve fitting using Biacore 8K Evaluation Software.

[3] = target: T1, human PD-1 (wild-type), expressed on …; assay: cell-based or functional assay; remark: listed apart in the source

Row | Binder | Cell-cell contact assay [1] [ng/mL] | Kd [2] [nM] | Cell-cell contact assay [3] [ng/mL]
1 | B1 | 13.7 | < 0.051 | 
2 | B2 |  | 0.00359 | 75.8
3 | B3 | 20.8 | < 0.0307 | 
4 | B4 | 18.8 | < 0.0217 | 
5 | B5 | 13.1 | < 0.0356 | 
6 | B6 | 16.7 | < 0.0408 | 
7 | B7 | 7.15 | < 0.0448 | 
8 | B8 |  | < 0.00306 | 39.4
9 | B9 | 8.83 | < 0.0315 | 
10 | B10 |  | 0.0111 | 87.4
11 | B11 |  | 0.012 | 149
12 | B12 |  | 0.00482 | 70.9
13 | B13 |  | 0.0614 | 1430
14 | B14 |  | 0.00216 | 103
15 | B15 |  | 0.151 | 150
16 | B16 |  | < 0.00284 | 63.1
17 | B17 |  | 0.00691 | 43.7
18 | B18 |  | 0.0252 | 301
19 | B19 |  | 0.00129 | 98.2
20 | B20 |  | < 0.00169 | 46.5
